Experimental data as given in publication doi:10.1101/2025.06.12.659244 (bioRxiv, 2025).

How the values were obtained:
[1] = biological target: the molecule itself; test: cryo-EM structure
[2] = biological target: the molecule itself; test: cryo-EM structure; remark: listed apart in the source
[3] = biological target: the molecule itself; test: SEC-MALS

| Protein | stoichiometry N [1] | stoichiometry N [2] | also measured |
| --- | --- | --- | --- |
| St3 Cas2 (untagged), Cas2 homodimer of the St3 Cas1-Cas2 integrase (natural protein, S. thermophilus DGCC 7710) MSYRYMRMILMFDMPTDTAEERKAYRKFRKFLLSEGFIMHQFSVYSKLLLNHTANTAMVGRLKANNPKKGNITILTVTEKQFARMIYLYGDKNTSIANSEERLVFLGDNYCDED | 2 | – | – |
| St3 Cas1 (C-terminal StrepII-Tag), Cas1 homodimer of the St3 Cas1-Cas2 integrase (enzyme, S. thermophilus DGCC 7710) MAGWRTVVVNIHSKLSYKNNHLIFRNSYKTEMIHLSEIDILLLETTDIVLTTMLVKRLVDENILVIFCDDKRLPTAFLTPYYARHDSSLQIARQIAWKENVKCEVWTAIIAQKILNQSYYLGECSFFEKSQSIMELYHGLERFDPSNREGHSARIYFNTLFGNDFTRESDNDINAALDYGYTLLLSMFAREVVVCGCMTQIGLKHANQFNQFNLASDIMEPFRPIIDRIVYQNRHNNFVKIKKELFSIFSETYLYNGKEMYLSNIVSDYTKKVIKALNQLGEEIPEFRI | 2 | – | – |
| St3 Cas1 (C-terminal HisTag), Cas1 homodimer of the St3 Cas1-Cas2 integrase (enzyme, S. thermophilus DGCC 7710) MAGWRTVVVNIHSKLSYKNNHLIFRNSYKTEMIHLSEIDILLLETTDIVLTTMLVKRLVDENILVIFCDDKRLPTAFLTPYYARHDSSLQIARQIAWKENVKCEVWTAIIAQKILNQSYYLGECSFFEKSQSIMELYHGLERFDPSNREGHSARIYFNTLFGNDFTRESDNDINAALDYGYTLLLSMFAREVVVCGCMTQIGLKHANQFNQFNLASDIMEPFRPIIDRIVYQNRHNNFVKIKKELFSIFSETYLYNGKEMYLSNIVSDYTKKVIKALNQLGEEIPEFRI | – | 2 | – |
| St3Csn2^Y212R+I213R+M215R (Interface 1 mutant of St3Csn2) (natural protein, S. thermophilus DGCC 7710, UniProt G3ECR4 1-219, looked up) MKINFSLLDEPMEVNLGTVLVIEDVSVFAQLVKEFYQYDEQSNLTIFDSKIRSIRSSELLLITDILGYDINTSQVLKLLHTDIVSQLNDKPEVRSEIDSLVSLITDIIMAECIENELDIEYDEITLLELIKALGVRIETKSCTVFEKIFEILQIFKYLVKKRILVFVNSLSYFSKDEIYQILEYTKLSQADVLFLEPRQIEGIQQFILDKDRRLRPYNN | – | 4 | – |
| St3Csn2 (accessory protein Csn2 of the S. thermophilus DGCC 7710 CRISPR3 system), homotetrameric ring (natural protein) MKINFSLLDEPMEVNLGTVLVIEDVSVFAQLVKEFYQYDEQSNLTIFDSKIRSIRSSELLLITDILGYDINTSQVLKLLHTDIVSQLNDKPEVRSEIDSLVSLITDIIMAECIENELDIEYDEITLLELIKALGVRIETKSCTVFEKIFEILQIFKYLVKKRILVFVNSLSYFSKDEIYQILEYTKLSQADVLFLEPRQIEGIQQFILDKDYILMPYNN | – | – | stoichiometry N [3]: 4 |
